This is an account of results in US20090155271A1 (ZymoGenetics, published 2009).

Values joined by “and” are separate entries in the source; they are usually repeats but may differ in a detail not shown here. Equal values may be shown once.

In general, Kd refers to the free concentration of one partner at which half of the binding sites on the other are occupied at equilibrium, for simple one-to-one binding. Lower therefore signals higher affinity. The term koff denotes the first-order rate constant of dissociation. What is called kon is the second-order rate constant of association. The low end stands for slower complex formation, the high end for faster complex formation.

First the molecules themselves.
B2: human IL-17F (ligand)
chain: RKIPKVGHTFFQKPESCPPVPGGSMKLDIGIINENQRVSMSRNIESRSTSPWNYTVTWDPNRYPSEVVQAQCRNLGCINAQGKEDISMNSVPIQQETLVVRRKHQGCSVSFQLEKVLVTVGCTCVTPVIHHVQ
notes: also called hIL-17F; huIL-17F

For assay [1], the target named is T1, human IL-17A (human, UniProt Q16552 24-155).
T1 sequence: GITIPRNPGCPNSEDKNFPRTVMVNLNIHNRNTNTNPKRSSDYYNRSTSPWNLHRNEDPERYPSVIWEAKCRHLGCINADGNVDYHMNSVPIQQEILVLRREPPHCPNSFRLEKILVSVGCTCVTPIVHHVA
Nature of the assay: cell-based or functional assay.

For assay [2], the target named is B2. As to the kind of experiment: cell-based or functional assay.
Assay [3] deals with T1, human IL-17A. Nature of the assay: cell-based or functional assay. The source holds these as a separate data set.
The target in assay [4] is B2. As to the kind of experiment: cell-based or functional assay. The source holds these as a separate data set.
Assay [5] addresses T1, human IL-17A. Nature of the assay: Biacore, rounded summary of Table 10. The source says:
(§1) The protocol was optimized to capture receptor at a theoretical binding max. before injecting a concentration series of each ligand to observe association and dissociation. […] The surface was regenerated with 2×30 sec. injections of pH 1.75 glycine between cycles.

The target of assay [6] is B2. Nature of the assay: Biacore, rounded summary of Table 10.
From the text: as §1

Assay [7] concerns the target T1, human IL-17A. As to the kind of experiment: Biacore, receptor captured by anti-human IgG-Fc on CM5, ligand series.
From the text: as §1
(In SPR one partner is held on a chip, and binding of the other changes the refractive index at the surface.)

The target of assay [8] is B2. Described as above.
From the text: as §1

In assay [9] the target is T2, human IL-17RC, x1 splice variant, on transfected cells (human, UniProt Q8NAC3 21-791).
T2 sequence: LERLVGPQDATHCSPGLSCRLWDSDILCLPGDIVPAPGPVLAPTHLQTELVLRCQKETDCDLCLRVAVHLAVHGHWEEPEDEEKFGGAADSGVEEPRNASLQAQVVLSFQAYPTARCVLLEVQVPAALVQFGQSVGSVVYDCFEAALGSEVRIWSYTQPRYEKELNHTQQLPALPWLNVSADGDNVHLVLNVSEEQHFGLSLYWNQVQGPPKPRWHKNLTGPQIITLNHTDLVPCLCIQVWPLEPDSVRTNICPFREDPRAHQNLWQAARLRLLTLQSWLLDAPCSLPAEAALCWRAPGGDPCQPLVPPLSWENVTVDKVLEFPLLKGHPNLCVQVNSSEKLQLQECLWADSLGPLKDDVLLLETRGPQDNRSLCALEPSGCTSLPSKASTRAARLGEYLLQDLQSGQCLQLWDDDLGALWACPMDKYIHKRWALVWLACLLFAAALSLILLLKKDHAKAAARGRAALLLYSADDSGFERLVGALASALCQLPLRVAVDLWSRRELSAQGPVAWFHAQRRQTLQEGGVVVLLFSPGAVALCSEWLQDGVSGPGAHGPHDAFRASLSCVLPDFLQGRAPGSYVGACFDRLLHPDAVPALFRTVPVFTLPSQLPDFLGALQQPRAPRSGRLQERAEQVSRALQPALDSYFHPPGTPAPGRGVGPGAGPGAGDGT
Nature of the assay: cell-based or functional assay.

For assay [10], the target named is T3, human IL-17RA on transfected cells (human, UniProt Q96F46 33-320).
T3 sequence: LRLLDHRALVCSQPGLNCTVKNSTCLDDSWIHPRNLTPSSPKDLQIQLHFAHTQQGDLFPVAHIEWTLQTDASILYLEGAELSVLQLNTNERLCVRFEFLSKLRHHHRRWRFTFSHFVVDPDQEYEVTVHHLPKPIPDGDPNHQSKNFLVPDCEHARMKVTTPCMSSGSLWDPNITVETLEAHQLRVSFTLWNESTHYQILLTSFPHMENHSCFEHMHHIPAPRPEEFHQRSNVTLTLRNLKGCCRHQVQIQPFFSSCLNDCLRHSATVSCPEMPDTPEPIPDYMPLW
Nature of the assay: cell-based or functional assay.

In assay [11] the target is T2, human IL-17RC, x1 splice variant, on …. Nature of the assay: 100x molar cold competitor, 125I IL-17A on BHK hIL-17RC cells. Here is the method: (§2) Cold competitors were added in 100 fold molar excess. […] Wells were incubated on ice for 1-hour followed by two washes with PBS (Invitrogen 20012-027) and one wash with a high salt solution (1.5M NaCL, 50 mM HEPES pH 7.4). Wells were extracted with 500 ul of 0.8M NaOH for 30 min. at room temperature and counts per minute were measured in a gamma counter (Packard Cobra II A5005).

Assay [12] shares this target. As to the kind of experiment: 100x molar cold competitor, 125I IL-17F on BHK hIL-17RC cells. Here is the method:
as §2

B1: Variant 1454 (exons 1-6 of human IL-17RA and 8-16 of human IL-17RCx1, fused to Fc5) (Fc fusion)
chain: SLRLLDHRALVCSQPGLNCTVKNSTCLDDSWIHPRNLTPSSPKDLQIQLHFAHTQQGDLFPVAHIEWTLQTDASILYLEGAELSVLQLNTNERLCVRFEFLSKLRHHHRRWRFTFSHFVVDPDQEYEVTVHHLPKPIPDGDPNHQSKNFLVPDCEHARMKVTTPCMSSALPWLNVSADGDNVHLVLNVSEEQHFGLSLYWNQVQGPPKPRWHKNLTGPQIITLNHTDLVPCLCIQVWPLEPDSVRTNICPFREDPRAHQNLWQAARLRLLTLQSWLLDAPCSLPAEAALCWRAPGGDPCQPLVPPLSWENVTVDKVLEFPLLKGHPNLCVQVNSSEKLQLQECLWADSLGPLKDDVLLLETRGPQDNRSLCALEPSGCTSLPSKASTRAARLGEYLLQDLQSGQCLQLWDDDLGALWACPMDKYIHKEPKSSDKTHTCPPCPAPEAEGAPSVFLFPPKPKDTLMISRTPEVTCVVVDVSHEDPEVKFNWYVDGVEVHNAKTKPREEQYNSTYRVVSVLTVLHQDWLNGKEYKCKVSNKALPSSIEKTISKAKGQPREPQVYTLPPSRDELTKNQVSLTCLVKGFYPSDIAVEWESNGQPENNYKTTPPVLDSDGSFFLYSKLTVDKSRWQQGNVFSCSVMHEALHNHYTQKSLSLSPGK
notes: also called IL17RA/RC 1454; soluble IL-17RC/IL-17RA polypeptide
With B1, in the assay with human IL-17A [1], the “IC50, luciferase activation of hIL-17RA/NIH3T3/KZ142.8 cells by 0.5 ng/ml IL-17A” value came out at 0.007 µg/mL. In the assay with human IL-17F [2], the “IC50, luciferase activation of hIL-17RA/NIH3T3/KZ142.8 cells by 20 ng/ml IL-17F” value was determined as 0.48 µg/mL and the “IC50, luciferase activation of hIL-17RCX4/NIH3T3/KZ142.8 cells by 1 ng/ml IL-17F” value was 0.8 µg/mL. Besides, in the assay with human IL-17A [3], the “IC50, huIL-17A(10 ng/ml) induction of G-CSF in SAEC” value worked out at 0.14 µg/mL and the “IC50, huIL-17A(10 ng/ml) induction of IL-8 in SAEC” value was found to be 0.03 µg/mL. Also, in the assay with human IL-17F [4], the “IC50, huIL-17F(50 ng/ml) induction of G-CSF in SAEC” value stood at 1.2 µg/mL and the “IC50, huIL-17F(50 ng/ml) induction of IL-8 in SAEC” value was 0.57 µg/mL. The Kd in the assay with human IL-17A [5] is approximately 0.04 nM. Besides, the Kd with human IL-17F [6] is approximately 0.14 nM. For the same molecule, in the assay with human IL-17A [7], the Kd is 0.0439 nM and 0.0382 nM; the koff is 6.22e-05 s⁻¹ and 9.95e-05 s⁻¹; the kon is 1.42e+06 M⁻¹ s⁻¹ and 2.61e+06 M⁻¹ s⁻¹. In addition, in the assay with human IL-17F [8], the Kd was 0.143 nM and 0.126 nM; the koff was 0.000261 s⁻¹ and 0.000315 s⁻¹; the kon was 1.82e+06 M⁻¹ s⁻¹ and 2.49e+06 M⁻¹ s⁻¹.
Turning to B2, the “EC50, ap1/nfkb luciferase in nih3t3/kz142.8/hcytor14X1 cells” value in assay [9] was determined as 0.00061 µg/mL. The “EC50, ap1/nfkb luciferase in nih3t3/kz142.8/IL-17R cells” value in assay [10] stood at 0.0124 µg/mL. Also, in assay [11], the “fold reduction of 125I IL-17A binding” value is approximately 7 fold. Besides, the “fold reduction of 125I IL-17F binding” value in assay [12] is approximately 5 fold.

B3: mouse IL-17A (ligand)
chain: AAIIPQSSACPNTEAKDFLQNVKVNLKVFNSLGAKVSSRRPSDYLNRSTSPWTLHRNEDPDRYPSVIWEAQCRHQRCVNAEGKLDHHMNSVLIQQEILVLKREPESCPFTFRVEKMLVGVGCTCVASIVRQAA
With B3, in assay [9], the “EC50, ap1/nfkb luciferase in nih3t3/kz142.8/hcytor14x1 cells” value was approximately 0.004 µg/mL.
